Source: PMC6591006

Biological target: Monoclonal anti-HIV-1 Env SF12 (IgG)
Assay: ELISA
Settings: highest antibody concentration of the titration (last point of the curve, between 1 and 10 µg/ml); parent: est. 3.3; read off a plot

## YU2 gp140 foldon trimer (wild type) A281T; D368K
  response: 2.7 OD
